# Bridges are numbered along the chain shown (N, C = ends). Where no end group is shown, it is not given here.
# T1: Porcine carboxypeptidase B (pCPB1) (porcine, UniProt P09955 111-416)
# T1 construct: Porcine carboxypeptidase B (CPB1), purchased active enzyme; also called porcine CPB1; source: bought: Sigma
# T1 sequence (looked up): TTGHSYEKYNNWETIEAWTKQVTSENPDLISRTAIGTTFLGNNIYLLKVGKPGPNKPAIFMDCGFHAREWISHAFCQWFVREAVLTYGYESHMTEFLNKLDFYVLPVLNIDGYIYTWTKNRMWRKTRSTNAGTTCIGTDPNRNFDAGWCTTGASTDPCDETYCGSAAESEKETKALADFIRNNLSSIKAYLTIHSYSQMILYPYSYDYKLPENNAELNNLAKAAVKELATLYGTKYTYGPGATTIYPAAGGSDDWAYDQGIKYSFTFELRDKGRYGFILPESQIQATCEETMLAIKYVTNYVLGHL
# T2: Human carboxypeptidase B1 (hCPB1) (human, UniProt P15086 111-417)
# T2 construct: also called human CPB1
# T2 sequence (looked up): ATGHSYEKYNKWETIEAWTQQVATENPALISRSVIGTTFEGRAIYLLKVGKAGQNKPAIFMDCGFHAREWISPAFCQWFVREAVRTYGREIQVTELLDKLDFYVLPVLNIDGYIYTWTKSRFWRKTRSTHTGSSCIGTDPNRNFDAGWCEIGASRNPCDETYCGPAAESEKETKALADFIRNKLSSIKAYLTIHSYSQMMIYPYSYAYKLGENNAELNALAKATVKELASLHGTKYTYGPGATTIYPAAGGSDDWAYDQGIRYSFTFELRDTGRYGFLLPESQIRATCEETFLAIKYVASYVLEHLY
# T3: Human carboxypeptidase A1 (hCPA1) (human, UniProt P15085 111-419)
# T3 construct: also called human CPA1
# T3 sequence (looked up): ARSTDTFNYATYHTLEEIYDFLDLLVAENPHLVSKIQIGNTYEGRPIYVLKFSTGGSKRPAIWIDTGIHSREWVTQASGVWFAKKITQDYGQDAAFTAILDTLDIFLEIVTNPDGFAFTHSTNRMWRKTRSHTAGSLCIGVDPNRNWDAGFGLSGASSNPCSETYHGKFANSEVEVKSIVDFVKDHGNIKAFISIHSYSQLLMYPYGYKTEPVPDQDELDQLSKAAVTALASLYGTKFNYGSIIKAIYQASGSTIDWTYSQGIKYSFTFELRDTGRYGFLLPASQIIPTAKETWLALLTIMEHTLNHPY
# T4: Bovine carboxypeptidase A (bCPA1) (bovine, UniProt P00730 111-419)
# T4 construct: Bovine carboxypeptidase A (CPA1), purchased active enzyme; also called bovine CPA1; source: bought: Sigma
# T4 sequence (looked up): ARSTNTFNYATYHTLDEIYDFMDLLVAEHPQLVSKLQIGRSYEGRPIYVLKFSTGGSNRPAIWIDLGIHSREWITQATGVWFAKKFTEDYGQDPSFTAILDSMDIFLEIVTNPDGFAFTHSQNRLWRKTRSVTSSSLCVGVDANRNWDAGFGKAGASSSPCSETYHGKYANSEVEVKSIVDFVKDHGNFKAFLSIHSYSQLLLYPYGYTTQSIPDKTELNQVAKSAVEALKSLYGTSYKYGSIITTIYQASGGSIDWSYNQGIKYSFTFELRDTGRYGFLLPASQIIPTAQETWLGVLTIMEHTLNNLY
# Key:
# Conditions in all cases: both partners purified
# [1] = target: T1, Porcine carboxypeptidase B (pCPB1); test: enzyme inhibition kinetics (tight-binding inhibitor, Morrison equation); CPBs: inhibition of hydrolysis of N-(4-methoxyphenylazoformyl)-Arg-OH (0.1 mM) at 355 nm; 20 mM Tris-HCl pH 7.5, 1% v/v DMSO, 0.05% w/v Brij-35, 0.1 M NaCl; 37 °C; enzyme constant (6.0 nM hCPB1 and pCPB1), increasing amounts of inhibitor
# [2] = target: T2, Human carboxypeptidase B1 (hCPB1); test: as above
# [3] = target: T3, Human carboxypeptidase A1 (hCPA1); test: enzyme inhibition kinetics (tight-binding inhibitor, Morrison equation); CPAs: inhibition of hydrolysis of N-(4-methoxyphenylazoformyl)-Phe-OH (0.1 mM) at 355 nm; 20 mM Tris-HCl pH 7.5, 1% v/v DMSO, 0.05% w/v Brij-35, 0.5 M NaCl; 37 °C; enzyme constant (7.5 nM hCPA1, 6.0 nM bCPA1), increasing amounts of inhibitor
# [4] = target: T4, Bovine carboxypeptidase A (bCPA1); test: as above
Ki [1],Ki [2],Ki [3],Ki [4],Binder
0.53 nM,0.62 nM,0.00118 nM,0.00491 nM,"Nerita versicolor carboxypeptidase inhibitor (NvCI), native (natural protein, UniProt P86912 1-53, looked up, disulfide 15-51, 9-23, 27-38, comprises 53 residues, C-terminal tail Cys51-Tyr52-Ala53; also called native NvCI; 3S-S native form; source: Pichia pastoris, secreted into the extracellular medium, purified (ion exchange, size exclusion); repurified by RP-HPLC) FHVPDDRPCINPGRCPLVPDATCTFVCKAADNDFGYECQHVWTFEGQRVGCYA"
4.9 nM,7.85 nM,1 nM,2.01 nM,"des(15–51) NvCI folding/unfolding intermediate (natural protein, Nerita versicolor, UniProt P86912 1-53, looked up, disulfide 9-23, 27-38; cysteine pairing not given here, differs only in the missing Cys15-Cys51 disulfide; also called intermediate IIb; fraction IIb) FHVPDDRPCINPGRCPLVPDATCTFVCKAADNDFGYECQHVWTFEGQRVGCYA"
